Measured values taken from patent US20230126400A1 (Alector, published 2023).
Numbering of substitutions follows the chain as printed. Each block holds one binder with its values, some of them ahead of it.

What was measured:
[1] = target: T1, human MS4A4A ECL2 peptide (amino acid residues 159-179), free (human); test: peptide ELISA, supernatant
T1 construct: synthetic peptide; also called huMS4A4A-ELC2 free-peptide
T1 peptide: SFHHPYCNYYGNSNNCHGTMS

human MS4A4A [2] = target: T2, human MS4A4A (human, UniProt Q96JQ5 1-239); test: FACS, K562 cells, supernatant
Protocol: (§1) Positive clones identified in Example 22 above were expanded and then rescreened for specificity against U937, K562, and/or 300.19 cells stably overexpressing human MS4A4A or cyno MS4A4A and parental U937, K562, and/or 300.19 cells. These experiments were performed using supernatants from hybridoma clones which had undergone further expansion after initial selection. Briefly, stably transfected cells were labeled with LIVE/DEAD Fixable Aqua Dead Cell Stain Kit (ThermoFisher Scientific Cat#L34957) on ice for 30 minutes. […] 2×10⁵ cells were aliquoted per well in 96-well U-bottom plates and incubated with 50 μl of culture supernatant on ice for 30 minutes. […] Following this secondary incubation, the cells were again washed twice with ice-cold FACS buffer and resuspended in a final volume of 200 μl of FACS buffer. Analysis was performed on a FACS Canto system (BD Biosciences), with gates drawn to exclude dead (Aqua-positive) cells.
(§2) The APC ratio was calculated for each antibody as follows. […] For cell lines overexpressing human MS4A4A (h4A) or cyno MS4A4A (cy4A), the ration was calculated by comparing the binding measured to the binding observed on the corresponding parental cell lines.

[3] = target: T3, human MS4A4A ECL1 peptide (amino acid residues 86-98) (human); test: peptide ELISA
T3 construct: synthetic peptide
T3 peptide: CMASNTYGSNPIS
Protocol: (§3) Briefly, 96-well polystyrene plates were coated with 2 or 10 m/ml of synthetic free or BSA-conjugated peptides in coating buffer (0.05M carbonate buffer, pH9.6, Millipore Sigma Cat#C3041) overnight at 4° C. Coated plates were then blocked with ELISA diluent (PBS+0.5% BSA+0.05% Tween20) for 1-hour, washed 3×300 μL in PBST (PBS+0.05% Tween20, Thermo Cat#28352), and then the antibodies were added to the plate (50 μl/well). After 30 mins incubation (room temperature, with shaking), the plates were washed 3×300 μL in PBST. […] After a final set of washes (3×300 μL in PBST), 50 μL of TMB substrate (BioFx Cat#TMBW-1000-01) was added and the reaction was then quenched after 5-10 mins with 50 μL of stop solution (BioFx Cat#BSTP-1000-01). The quenched reaction wells were detected for absorbance at 650nm with a BioTek Synergy Microplate Reader using GENS 2.04 software.

cynomolgus (cyno) MS4A4A [4] = target: T4, cynomolgus (cyno) MS4A4A (cynomolgus); test: FACS, 300.19 cells, supernatant
T4 construct: also called cy4A; Cyno 4A
Protocol: as §1, §2

human MS4A4A [5] = target: T2, human MS4A4A; test: FACS, U937 cells overexpressing human MS4A4A, 5 ug/ml
Protocol: (§4) Purified huIgG1 chimeric anti-MS4A4A antibodies were screened for their ability to differentially bind MS4A4A on U937 cells stably overexpressing human MS4A4A, U937 cells with human MS4A4A knocked out, and parental U937 cells. Differential binding to MS4A4A expressed on these cells was assessed by FACS analysis using 5 μg/ml of purified anti-MS4A4A chimeric antibodies, as described above.

human MS4A4A [6] = target: T2, human MS4A4A; test: FACS, parental U937 cells (endogenous human MS4A4A, not overexpressed), 5 ug/ml
Protocol: as §4

[7] = target: T5, BSA-conjugated human MS4A4A ECL2 peptide (amino acid residues 159-179) (human, conjugated to BSA (site not stated)); test: ELISA, supernatant
T5 construct: also called MS4A4A-ECL2 BSA conjugated peptide; BSA-MS4A4A-ELC2 peptide
T5 peptide: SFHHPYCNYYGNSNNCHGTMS
Protocol: as §3, with “1-10 μg/ml” for “2 or 10 m/ml”, “C3041)” for “Cat#C3041)”, “[…]).” for “μl/well).”, “TMBW-1000-01)” for “Cat#TMBW-1000-01)”, “BSTP-1000-01).” for “Cat#BSTP-1000-01).”, “650 nm” for “650nm”

[8] = target: T6, human MS4A6A ECL2 peptide (amino acid residues 138-185) (human); test: array SPR
T6 peptide: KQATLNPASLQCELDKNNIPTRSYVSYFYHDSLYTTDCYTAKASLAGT
Protocol: (§5) Binding kinetic characterization of the anti-MS4A4A antibodies to MS4A4A ECL1 and ECL2 and to MS4A6A ECL1 and ECL2 peptides was performed by Carterra (South San Francisco, Calif.) using a proprietary array Surface Plasmon Resonance (SPR) instrument (MX-96) as follows. Antibodies were captured onto a CMD500D chip (Xantec # SPMX CMD500D) using the Continous Flow Microspotter (CFM). First, the chip was activated with 100 mM MES pH 5.5, 100 μL EDC (133 mM final), 100 μL of S-NHS (33.3 mM final), for 7 minutes. […] Anti-MS4A4A hydridoma supernatant or purified anti-MS4A4A antibodies were diluted in HBS-EP+ buffer (Teknova Cat # H8022) and then printed as duplicates with a 20 minute and a 5-minute print from the same sample solution.
(§6) These were then injected on the chip for five minutes, followed by a seven-minute dissociation period at 8 uL per second in a non-regenerative kinetic series. Duplicate measurements for each anti-MS4A4A antibody were taken to ensure reproducibility. Association rates (Kon) and dissociation rates (Koff) were calculated using a single one-to-one Langmuir binding model. The equilibrium dissociation constant (KD) was calculated as the ration of Koff/Kon.

[9] = target: T7, human MS4A6A ECL1 peptide (amino acid residues 68-85) (human); test: array SPR
T7 peptide: SASFSPNFTQVTSTLLNS
Protocol: as §5, §6

[10] = target: T3, human MS4A4A ECL1 peptide (amino acid …); test: ELISA, hybridoma supernatant
Protocol: as §3, with “1-10 μg/ml” for “2 or 10 m/ml”, “C3041)” for “Cat#C3041)”, “[…]).” for “μl/well).”, “TMBW-1000-01)” for “Cat#TMBW-1000-01)”, “BSTP-1000-01).” for “Cat#BSTP-1000-01).”, “650 nm” for “650nm”

human MS4A4A [11] = target: T2, human MS4A4A; test: FACS, HEK293, supernatant
Protocol: (§7) Positive clones identified above were expanded and then rescreened for specificity against HEK293 cells overexpressing human MS4A4A or cyno MS4A4A and parental HEK293 cells. These experiments were performed using supernatants from hybridoma clones which had undergone further expansion after initial selection. Briefly, previously prepared, cryopreserved transiently-transfected cells were labeled with LIVE/DEAD Fixable Aqua Dead Cell Stain Kit (ThermoFisher Scientific L34957) on ice for 30 minutes. After a wash with PBS, 2×10⁵ cells were aliquoted per well in 96-well U-bottom plates and incubated with 50 μl of culture supernatant on ice for 30 minutes. […] Following this secondary incubation, the cells were again washed twice with ice-cold FACS buffer and resuspended in a final volume of 200 μl of FACS buffer. Analysis was performed on a FACS Canto system (BD Biosciences), with sort gates drawn to exclude dead (Aqua-positive) cells. Positive clones (fold change of 1.8 or greater) were carried forward for further testing.

cynomolgus (cyno) MS4A4A [12] = target: T4, cynomolgus (cyno) MS4A4A; test: FACS, HEK293, supernatant
Protocol: as §7

binding result [1]: no binding
fold increase in MFI (human MS4A4A [2]): > 2 fold
binding result [3]: no binding
fold increase in MFI (cynomolgus (cyno) MS4A4A [4]): > 2 fold
B1: anti-MS4A4A antibody 4A-201 (murine) (antibody, V domains shown)
VH: QVQLRESGPGLVAPSQSLSITCTVSGFSLSSFGVTWVRQPPGKGLEWLGIIWGDGSTNYHSALISRLSISKDNSKSQVFLKLNRLQTDDTATYYCAKRDYDGREDVMGYWGQGTSVTVSS
VL: DIVMTQSQKFMSTSVGDRVSITCKATQNVRTAVAWYQQKPGQSPKPLIYLASNRHTGVPDRFTGSGSGTDFTLTITNVQSEDLADYFCLQHWSYPLTFGAGTKLEMK
notes: murine hybridoma antibody

ratio of MFI over secondary antibody alone (human MS4A4A [5]): 8.9 ratio
ratio of MFI over secondary antibody alone (human MS4A4A [6]): 1.1 ratio
B2: anti-MS4A4A antibody 4A-201, huIgG1 chimera (antibody, V domains shown)
VH: B1 VH
VL: B1 VL

binding result [1]: no binding
fold increase in MFI (human MS4A4A [2]): > 2 fold
binding result [3]: no binding
fold increase in MFI (cynomolgus (cyno) MS4A4A [4]): > 2 fold
B3: anti-MS4A4A antibody 4A-225 (antibody, V domains shown)
VH: B1 VH with R5K, S30T, T35N, V37F, Y59F, I64M, E104D
VL: B1 VL with F10I, T26S, N28T, P46A, T76S
notes: murine hybridoma antibody

binding result [1]: no binding
binding result [3]: no binding
B4: anti-MS4A4A antibody 4A-210 (murine) (antibody, V domains shown)
VH: DVKLVESGGGLVKPGGSLKLSCAASGFTFGTYTMSWVRQTPEKRLEWVATISSGGSYTFYPDSVKGRFTISRDNAKNTLYLQMSSLKSEDTAMYYCTRDNTTGDRGWYFDVWGAGTTVTVSS
VL: DIVLTQSPVSLAVSLGQRATISCQASESVSFAGKSLMHWFQQKPGQPPKLLIYRASNLESGVPARFSGSGSESDFTLTIDPVEEDDATMYYCMQSMEDPRTFGGGTKLEIK
notes: murine hybridoma antibody

binding result [1]: no binding
binding result [3]: no binding
B5: anti-MS4A4A antibody 4A-203 (murine) (antibody, V domains shown)
VH: DVKLVESGGGLVKLGGSLKLSCAASGFTFSSFYMSWVRQTPEKRLELVAAINSNGGSTYYPDTVKGRFTISRDNAKNTLYLQMSSLKSEDTALYYCARQNYYGSSSYWYFDVWGAGTTVTVSS
VL: EIVLTQSPALMAASPGEKVTITCSVSSSISSSNLHWYRQKSETSPKPWIYGTSNLASGVPVRFSGSGSGTSYSLTISSMEAEDAATYYCQQWSRYPLTFGAGTKLELK
notes: murine hybridoma antibody

fold increase in MFI (human MS4A4A [2]): > 2 fold
fold increase in MFI (cynomolgus (cyno) MS4A4A [4]): > 2 fold
B6: anti-MS4A4A antibody 4A-207 (murine) (antibody, V domains shown)
VH: EVNLEESGGGLVQPGGSMKLSCVASGFTFNNYWMNWVRQSPEKGLEWVAEIRLKSNNYATHYAESVKGRFTISRDDSKSSVYLQMNNLRPEDTAIYYCTTDPPMDYSGQGTPVTVSS
VL: QIVLTQSPAFMSASPGEKVTITCSASSSVSYMHWFQQKPGTSPKLWIYSTSNLVSGVPDRFSGSGSGTSYSLTISRMEAEYAATYYCHQRTSYPWTFGGGTKLEIK
notes: murine hybridoma antibody

binding result [7]: binds
binding result [8]: no binding (tested: 2000 nM)
binding result [9]: no binding (tested: 2000 nM)
binding result [10]: no binding
Human 4A:parental cell ratio (human MS4A4A [11]): 20.2 ratio
Cyno 4A:parental cell ratio (cynomolgus (cyno) MS4A4A [12]): 9.63 ratio
B7: anti-MS4A4A antibody 4A-2 (antibody, V domains shown)
VH: QIQLVQSGPELKKPGETVKISCKASGYTFVDYEMNWVKQAPGKGLEWLGWINTYTGEPTYADDFQGRFAFSLVTSVSTAYLQINNLKHEDMATYLCTRNYYYGNGDVMDYWGQGTSVTVSS
VL: B6 VL with F10I, M32I, V54A, D59A, Y81D, H88Q, S92G, Y93F, W95L, K102Q
notes: murine hybridoma antibody

ratio of MFI over secondary antibody alone (human MS4A4A [5]): 25.3 ratio
ratio of MFI over secondary antibody alone (human MS4A4A [6]): 1 ratio
B8: anti-MS4A4A antibody 4A-205, huIgG1 chimera (antibody, V domains shown)
VH: EVQLVESGGDLVKPGGSLKLSCAASGFTFSHYGMSWVRQTPDKRLDWVATIGRDGIHTDYRDSVKGRFTISRDNAKNTLYLQMGSLKSEDSAIFYCARHLYYGLYYSMDYWGQGTSVTVSS
VL: ENVLTQSPAIMSASPGEKVTMTCSASSSVSFMYWYQQKSSTSPKLWIYDTSKLASGVPGRFSGSGSGNSYSLTISSMEAEDVATYYCFQGSGYPLTFGSGTKLEIK

binding result [1]: no binding
fold increase in MFI (human MS4A4A [2]): > 2 fold
binding result [3]: no binding
fold increase in MFI (cynomolgus (cyno) MS4A4A [4]): > 2 fold
B9: anti-MS4A4A antibody 4A-209 (murine) (antibody, V domains shown)
VH: EVKLLESGGGLVQPGGSLKLSCAASGFDFSRYWMSWVRQAPGKGLEWIGEIKSDSSTINYTPSLKDKFIISRDNAKNTLYLQMSKVRSEDTALYYCARRGFYDYDAWFAYWGQGTLVTVSS
VL: QIVLTQSPTLMSASPGEKVTMTCSASSSVTYMYWYQQKPRSSPKPWIYLTSNRASGVPTRFSGSGSGTSHSLTISYMEAEDAATYYCQQWSSNPPTFGAGTKLELR
notes: murine hybridoma antibody
